This test addresses VDAC-ΔC, C-terminally truncated variant of Neurospora crassa VDAC lacking residues 269-283 (β19) (Neurospora crassa). The test can be described thus: SEC-MALS; protein folded in DM, no sterol; UV, MALS and differential refractive index detectors, protein-conjugate analysis in ASTRA. On the technique in general: Size exclusion chromatography separates by hydrodynamic size, large species first.

Several values for one entry are separate records, joined by “and”; a condition that tells them apart may be missing. Equal values may be shown once.

A word on the stoichiometry N: it is a count of units in the complex or per binding partner. Turning to “VDAC-ΔC, C-terminally truncated variant of Neurospora crassa VDAC lacking residues 269-283 (β19) (domain or fragment)”, the stoichiometry N was 2 and 4.
